# Measured values: patent publication US11147875B2, “Compositions, combinations and related methods for photoimmunotherapy” (priority 2015, dated 2021)
# B1: IFNgamma: recombinant human Interferon Gamma (carrier free) (protein, UniProt P01579 24-161, looked up)
# Interferon gamma: QDPYVKEAENLKKYFNAGHSDVADNGTLFLGILKNWKEESDRKIMQSQIVSFYFKLFKNFKDDQSIQKSVETIKEDMNVKFFNSNKKKRDDFEKLTNYSVTDLNVQRKAIHELIQVMAELSPAAKTGKRKRSQMLFRG
# Assays:
# BxPC3 cells = experiment: Effect of interferon gamma on cell death; format: cell-based; settings: 0 ng/mL to 3.75 μg/mL, 18 hours
# Experimental: BxPC3 cells (#CRL-1687, ATCC, Manassas Va.) were seeded in 96 well black, clear-flat bottom dishes at 5000 cells per well, and placed in at 37° C., 5% CO2 incubator. The following day, the cells were washed once with RPMI 1640 supplemented with 10% FBS and 1% Penicillin/Streptomyocin (complete culture media). The cells were then incubated for 18 hours with complete culture media containing different concentrations of recombinant human Interferon Gamma (IFNgamma) (carrier free) (Cat No: 570202, BioLegend, San Diego, Calif.) ranging from 0 ng/mL to 3.75 μg/mL.
# After 18 hours, the media containing different concentrations of interferon gamma was replaced with complete culture media containing 1× CellTox Green (Cat No: G8731, Promega, Madison, Wis.). […] The CellTox Green fluorescence signal was measured at 24.5 hours after light treatment using a fluorescence plate reader. The cells were then lysed with detergent, incubated at 37° C. for 30 minutes, and the CellTox Green fluorescence signal was measured again post lysis. The percent dead cells was calculated by taking the ratio between background (1× CellTox Green in complete culture media without cells) subtracted CellTox Green signal per well prior to and post lysis and multiplying the ratio by 100.
# PD-L1 = experiment: Effect of interferon gamma on PD-L1 expression, flow cytometry; format: cell-based; settings: 375 pg/mL, 37.5 ng/mL, 18 hours; BxPC3 cells
# Experimental: BxPC3 cells were seeded in 12 well dishes at 145,000 cells per well, and placed at 37° C. in a 5% CO2 incubator. The following day, the cells were washed once with RPMI 1640 supplemented with 10% FBS and 1% Penicillin/Streptomyocin (complete culture media). The cells were then incubated for 18 hours with complete culture media alone, complete culture media containing 375 pg/mL of recombinant human Interferon Gamma (carrier free) (Cat No: 570202, BioLegend, San Diego, Calif.), or complete culture media containing 37.5 ng/mL recombinant human Interferon Gamma (carrier free). After the 18 hour incubation with or without recombinant interferon gamma, the BxPC3 cells were washed one time with complete culture media. […]
# After the one hour incubation, the cells were washed three times with phosphate buffer saline (pH 7) and incubated with enzyme free cell dissociation buffer (Catalog No: S-014-C, EMD Millipore, Billerica, Mass.) until cells were detached. After the cells detached, phosphate buffer saline containing 0.5% bovine serum albumin fraction V (Catalog No: 15260-037, ThermoFisher Scientific, Waltham, Mass.) was added to the cells, and the samples were immediately analyzed by flow cytometry for PD-L1 expression based on the fluorescent signal from the IR700 dye of the anti-PD-L1-IRDye 700DX. […]
molecule,measurement,setting,value
B1,cell death,BxPC3 cells,dose-dependent increase in cell death
same,PD-L1 expression,PD-L1,dose-dependent increase in PD-L1 expression
